Data taken from doi:10.1101/2021.02.02.429416.

Legend:
[1] = molecular target: Aflibercept; assay: ELISA
[2] = molecular target: KP-VR2 (human); assay: ELISA
[3] = molecular target: KP-VR2 (human); assay: BLI

EC50 [1]: 30.5 nM | EC50 [2]: 2.39 nM | Kd [3]: 0.78 nM
B1: Human PlGF-1 (ligand)
chain: LPAVPPQQWALSAGNGSSEVEVVPFQEVWGRSYCRALERLVDVVSEYPSEVEHMFSPSCVSLLRCTGCCGDENLHCVPVETANVTMQLLKIRSGDRPSYVELTFSQHVRCECRPLREKMKPERCGDAVPRR
